The values below come from publication PMC9464147.

The target in experiment [1] is Milk CA VI (carbonic anhydrase VI purified from human milk) (human) (UniProt P23280). The experiment can be described thus: SDS-PAGE without cross-linker; milk CA VI without DSS treatment (lane 7), boiled in sample buffer with SDS and reducing agent, SDS-PAGE, densitometry of bands.
Experiment [2] shares this target. The experiment in a line: SEC; analytical SEC, Superdex 200 5/150 GL, 50 µg protein, 50 mM Tris-HCl pH 7.5, 0.1 ml/min, +12 °C; MW from a standard curve, oligomeric state calculated with a monomer MW of 33.57 kDa.
For experiment [3] the target is unchanged. The experiment in a line: SEC; analytical SEC, Superdex 200 5/150 GL, 50 µg protein, 0.1 M Na-acetate buffer pH 5.0, 0.1 ml/min, +12 °C; MW from a standard curve, oligomeric state calculated with a monomer MW of 33.57 kDa.
For experiment [4] the target is unchanged. The experiment in a line: cross-linking; DSS in 25- and 50-fold molar excess over protein (Table 3: 50-fold), milk CA VI 0.25-2 mg/ml in 100 mM Na2HPO4, 0.15 M NaCl pH 7.5, RT 30 min, quenched with Tris-HCl; reducing SDS-PAGE, densitometry of bands.
Experiment [5] concerns the target Salivary CA VI (carbonic anhydrase VI purified from human saliva) (human) (UniProt P23280). The experiment in a line: SEC; analytical SEC, Superdex 200 5/150 GL, 50 µg protein, 50 mM Tris-HCl pH 7.5, 0.1 ml/min, +12 °C; MW from a standard curve, oligomeric state calculated with a monomer MW of 33.57 kDa.
For experiment [6] the target is unchanged. The experiment in a line: SEC; analytical SEC, Superdex 200 5/150 GL, 50 µg protein, 0.1 M Na-acetate buffer pH 5.0, 0.1 ml/min, +12 °C; MW from a standard curve, oligomeric state calculated with a monomer MW of 33.57 kDa.

Usually stoichiometry N stands for a count of units in the complex or per binding partner.

Where “and” joins values, the source holds several entries; their conditions need not be identical. Equal entries are not always repeated.

As to “Milk CA VI (carbonic anhydrase VI purified from human milk) (from UniProt P23280 18-308) (enzyme)”, in experiment [1], the % of the lane in the dimer band (no DSS) worked out at 9.67%. The stoichiometry N in experiment [2] was 15 and 6. In experiment [3], the stoichiometry N was 7. In experiment [4], the % of the lane in the dimer band (0.25 mg/ml) was 16.1%, the % of the lane in the dimer band (0.5 mg/ml) turned out to be 9.88%, the % of the lane in the dimer band (0.75 mg/ml) came out at 19.4% and the % of the lane in the dimer band (1 mg/ml) came out at 17%. Further, in experiment [4], the % of the lane in the dimer band (1.5 mg/ml) amounted to 16.9%, the % of the lane in the dimer band (2 mg/ml) was 19%, the % of the lane in the hexamer band (0.25 mg/ml) was determined as 22.3% and the % of the lane in the hexamer band (0.5 mg/ml) amounted to 12.8%. In experiment [4], the % of the lane in the hexamer band (0.75 mg/ml) was found to be 20.3%, the % of the lane in the hexamer band (1 mg/ml) is 23.5%, the % of the lane in the hexamer band (1.5 mg/ml) was 20.4% and the % of the lane in the hexamer band (2 mg/ml) came out at 20.8%. Moreover, in experiment [4], the % of the lane in the tetra- or pentamer band (0.25 mg/ml) stood at 14.1%, the % of the lane in the tetra- or pentamer band (0.5 mg/ml) was 10.2%, the % of the lane in the tetra- or pentamer band (0.75 mg/ml) was 15.2% and the % of the lane in the tetra- or pentamer band (1 mg/ml) was 13.2%. Moreover, in experiment [4], the % of the lane in the tetra- or pentamer band (1.5 mg/ml) came to 12.7%, the % of the lane in the tetra- or pentamer band (2 mg/ml) amounted to 12.1% and the stoichiometry N was 5. In addition, in experiment [4] (dimer band), the stoichiometry N was 2. For the same substance, the stoichiometry N in experiment [4] (hexamer band) was determined as 6.

In the case of “Salivary CA VI (carbonic anhydrase VI purified from human saliva) (from UniProt P23280 18-308) (enzyme)”, the stoichiometry N was 14 in experiment [5] and 6 in experiment [6].
